# Measured values published in FireProtDB (doi:10.1021/bi060038+).
# B1: Phosphocarrier protein HPr wild type, P08877 (protein)
# chain: MAQKTFKVTADSGIHARPATVLVQTASKYDADVNLEYNGKTVNLKSIMGVMSLGIAKGAEITISASGADENDALNALEETMKSEGLGE
# B2: Phosphocarrier protein HPr wild type, Q9K8D2 (protein)
# chain: MAEKTFTITAETGIHARPATQLVNKAGQYSSEITLEYKGKAVNLKSIMGVMSLGVGKGAQVTIKAEGSDEAEALKGIEEVIKEGLGE
# B3: Phosphocarrier protein HPr wild type, Q8ENY1 (protein)
# chain: MKSQTFTITAETGVHARPATLLVNKAGQFDSEIEVSYKGKQVNLKSIMGVMSLGIPKGAEIEVSADGKDEEDALNGVAEVIKEHLGE
# B4: Phosphocarrier protein HPr wild type, P42013 (protein)
# chain: MAEKTFKVVSDSGIHARPATILVQTASKFNSEIQLEYNGKTVNLKSIMGVMSLGIPKGATIKITAEGADAAEAMAALTDTLAKEGLAE
# B5: Phosphocarrier protein HPr wild type, Q8VP89 (protein)
# chain: MASKDFHIVAETGIHARPATLLVQTASKFASDITLEYKGKAVNLKSIMGVMSLGVGQGADVTISAEGPDADDAIAAIAETMTKEGLA
# Settings: pH 7, CD, sodium phosphate 10 mM, reversible: Yes, whole UniProt chain shown; for denaturant m value / unfolding free energy: 25 °C; for Tm / unfolding enthalpy (van 't Hoff): Thermal
# [1] = Bacillus subtilis (strain 168), GdnHCl
# [2] = Bacillus subtilis (strain 168), Urea
# [3] = Halalkalibacterium halodurans (strain ATCC BAA-125 / DSM 18197 / FERM 7344 / JCM 9153 / C-125), GdnHCl
# [4] = Halalkalibacterium halodurans (strain ATCC BAA-125 / DSM 18197 / FERM 7344 / JCM 9153 / C-125), Urea
# [5] = Halalkalibacterium halodurans (strain ATCC BAA-125 / DSM 18197 / FERM 7344 / JCM 9153 / C-125)
# [6] = Oceanobacillus iheyensis (strain DSM 14371 / CIP 107618 / JCM 11309 / KCTC 3954 / HTE831), GdnHCl
# [7] = Oceanobacillus iheyensis (strain DSM 14371 / CIP 107618 / JCM 11309 / KCTC 3954 / HTE831), Urea
# [8] = Oceanobacillus iheyensis (strain DSM 14371 / CIP 107618 / JCM 11309 / KCTC 3954 / HTE831)
# [9] = Geobacillus stearothermophilus, GdnHCl
# [10] = Geobacillus stearothermophilus, Urea
# [11] = Streptococcus thermophilus, GdnHCl
# [12] = Streptococcus thermophilus, Urea
protein,measurement,setting,value
B1,denaturant m value,[1],3.28 kcal/mol/M
same,unfolding free energy,[1],3.4 kcal/mol
same,denaturant m value,[2],1.08 kcal/mol/M
same,unfolding free energy,[2],5 kcal/mol
same,Tm,Bacillus subtilis (strain 168),73 °C
same,unfolding enthalpy (van 't Hoff),Bacillus subtilis (strain 168),77 kcal/mol
B2,denaturant m value,[3],2.36 kcal/mol/M
same,unfolding free energy,[3],5.3 kcal/mol
same,denaturant m value,[4],0.9 kcal/mol/M
same,unfolding free energy,[4],6.8 kcal/mol
same,Tm,[5],82.3 °C
same,unfolding enthalpy (van 't Hoff),[5],87 kcal/mol
B3,denaturant m value,[6],2.56 kcal/mol/M
same,unfolding free energy,[6],1.4 kcal/mol
same,denaturant m value,[7],1.27 kcal/mol/M
same,unfolding free energy,[7],3.4 kcal/mol
same,Tm,[8],58 °C
same,unfolding enthalpy (van 't Hoff),[8],59 kcal/mol
B4,denaturant m value,[9],2.43 kcal/mol/M
same,unfolding free energy,[9],6.7 kcal/mol
same,denaturant m value,[10],0.98 kcal/mol/M
same,unfolding free energy,[10],8.2 kcal/mol
same,Tm,Geobacillus stearothermophilus,88.3 °C
same,unfolding enthalpy (van 't Hoff),Geobacillus stearothermophilus,99 kcal/mol
B5,denaturant m value,[11],2.75 kcal/mol/M
same,unfolding free energy,[11],5.4 kcal/mol
same,denaturant m value,[12],0.86 kcal/mol/M
same,unfolding free energy,[12],6.3 kcal/mol
